Measured values as given in publication PMC5042384, “Sequence-Dependent T:G Base Pair Opening in DNA Double Helix Bound by Cren7, a Chromatin Protein Conserved among Crenarchaea”.

T1: Cren7 (UniProt Q97ZE3 1-60)
T1 sequence: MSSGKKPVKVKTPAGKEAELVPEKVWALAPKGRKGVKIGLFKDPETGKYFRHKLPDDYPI

B1: d(GTAATTGC)2 (dsDNA)
DNA 1: GTAATTGC
DNA 2: GTAATTGC
B2: d(GTGATCGC)2 (dsDNA)
DNA 1: GTGATCGC
DNA 2: GTGATCGC

What was measured:
[1] = target: T1, Cren7; assay: X-ray crystallography; 2.0 A; T2:G15 open; SPR (BIAcore 3000): 50 mM Tris-Cl pH 7.5, 100 mM NaCl, 1 mM EDTA, 0.005% Tween 20, 25 C, 1:1 Langmuir global fit; crystals: protein:DNA 1:1.5, 30% PEG1500, 20 C; conditions: protein: recombinant; blunt; self-annealed octamer, 2 strand copies, T:G mispairs T2:G15 and G7:T10
[2] = target: T1, Cren7; assay: X-ray crystallography; 2.1 A; both T:G wobble; SPR (BIAcore 3000): 50 mM Tris-Cl pH 7.5, 100 mM NaCl, 1 mM EDTA, 0.005% Tween 20, 25 C, 1:1 Langmuir global fit; crystals: protein:DNA 1:1.5, 30% PEG1500, 20 C; conditions: protein: recombinant; blunt; self-annealed octamer, 2 strand copies, T:G mispairs T2:G15 and G7:T10

Binder	binding result [1]	binding result [2]
B1	binds	
B2		binds
